Read-outs that look alike come from different tables or passages of the source.

Our source for the Kd values is publication PMC3896865.

Some targets named below: EGR1 DB_H382E (human, UniProt P18146 331-430, H382E); EGR1 DB_H382A (human, UniProt P18146 331-430, H382A); EGR1 DB_H382K (human, UniProt P18146 331-430, H382K); EGR1 DB_H382R (human, UniProt P18146 331-430, H382R).
What all share (assay): ITC
A general note: ITC needs no label: the signal is the heat of the interaction.

Series [1] addresses T1, EGR1 DB_WT (Zif268 DNA-binding domain) (human, UniProt P18146 331-430).
Series [2] addresses T1, EGR1 DB_WT (Zif268 DNA-binding domain). This is another data set of the same source.
The target is the same in series [3]. The source holds these as a separate data set.
For series [4] the target is unchanged. The source holds these as a separate data set.
The target is the same in series [5]. The source holds these as a separate data set.
Series [6] shares this target. The source holds these as a separate data set.
Series [7] has the same target. The source holds these as a separate data set.
For series [8] the target is unchanged. This is another data set of the same source.
For series [9] the target is unchanged. This is another data set of the same source.
Series [10] has the same target. This is another data set of the same source.

B1: ZRE duplex (15-mer) (dsDNA)
DNA 1: ATAGCGTGGGCGTTT
DNA 2: AAACGCCCACGCTAT
Turning to B1, the Kd came out at 345 nM in series [1]; 324 nM in series [2]; 758 nM in series [3]; 314 nM in series [4]; 266 nM in series [5]; 421 nM in series [6]. Further, the Kd was 755 nM in [7]; 1030 nM in [8]; 1330 nM in series [9]; 2300 nM with EGR1 DB_H382E; 1610 nM in the series with EGR1 DB_H382A; 2260 nM with EGR1 DB_H382K. Moreover, the figures for the Kd (in the series with EGR1 DB_H382R; in series [10]) were 2040 nM and 271 nM, respectively.

What is called Kd is the concentration at which binding is half-saturated.
